{
  "source": "patent US11034736B2",
  "about": "“Anti-viral cnidarins” (priority 2014, dated 2021)",
  "molecules": {"B1": {"name": "CNID-1: HIV-inhibitory protein from soft coral Synthecium sp.; 172 amino acids, 18,122 Da, SEQ ID NO: 1 (protein)", "chain": "GRATLGQLKTSTIPPVTFDVPFDGANIPQDVRFTIATVNGGKGALYNAELGESAGHTIVLESDGDHPIPGTFDPKSGRGLDYLPRGLVLFSSHNYVGNMKMYTEPDSDITADFPPGTPFGVSSAITGEGSAFQLNTGIDHTGEFEIIPPNTKRNLAGVFDNEIRSVSPTGGK"}},
  "biological_target": "HIV-1IIIB gp120 (Human immunodeficiency virus type 1 group M subtype B, UniProt P04578)",
  "method": "Additional ELISA studies were performed to assess the effect of monosaccharides on CNID-1 binding to gp120 and gp41. The plates were prepared with native HIV-1IIIB gp120 (Advanced Biotechnologies, Columbia, Md.) or recombinant HIV-1HxB2 gp41 (Vybion Inc., Ithaca, N.Y.), and 100 ng/well rCNID-1-Trx was added in the presence or absence of 1 mM concentrations of the following sugars: glucose, mannose, galactose, fucose, xylose, N-acetylglucosamine (GlcNAc), N-acetylgalactosamine (GalNAc), or 100 ng/well α-acid glycoprotein (to act as a carrier for sialic acid). The plates were then washed and visualized using anti-CNID-1 polyclonal antibodies as above.\nPlates to test the effect of sCD4 on CNID-1 binding to gp120 were prepared with recombinant HIV-1IIIB gp120 (Immuno Diagnostics, Woburn, Mass.) at 4° C. overnight (100 ng/well) and blocked as previously described. Serial dilutions of rCNID-1-Trx were added in the presence (test plate) or absence (control plate) of 50 ng/well sCD4 (sCD4-183, 2-domain, NIH AIDS Research & Reference Reagent Program, Germantown, Md.) and incubated for 1 hr. Plates were washed and visualized as above. Plates to test for the effect of CV-N, SVN or GRFT on CNID-1 binding to gp120 were prepared with recombinant HIV-NIIIB gp120 (Immuno Diagnostics, Woburn, Mass.) at 4° C. overnight (100 ng/well) and blocked as previously described. CV-N (100 ng/well), SVN (100 ng/well) or GRFT (130 ng/well) were added (PBST was added to control wells) and incubated for 30 minutes, followed by serial dilutions of rCNID-1-Trx and further incubated for 75 minutes. The plates were then washed and visualized using anti-CNID-1 polyclonal antibodies as previously outlined.\nPlates were prepared with recombinant HIV-1IIIIB gp120 (Immuno Diagnostics, Woburn, Mass.) at 4° C. overnight (100 ng/well) and blocked as previously described. rCNID-1-Trx were added: 250 ng/well for sCD4 test plate or 500 ng/well for the GRFT test plate, and PBST (50 μl/well) to the control plate; incubation done for 2 hrs. The plates were washed as before and serial dilutions of sCD4 (sCD4-183, 2-domain, NIH AIDS Research & Reference Reagent Program, Germantown, Md.) or GRFT were added; incubated for 1 hr 10 minutes. Plates were washed as before. Primary antibodies were added at 100 μl/well: mouse anti-CD4 (ProSci Inc., Poway, Calif.) at 1:1000 dilution or rabbit anti-GRFT at 1:500 dilution; incubation done for 1 hr. The plates were washed as before and peroxidase conjugated secondary antibodies (Thermo Fisher Scientific Inc., Rockford, Ill.) were added at 100 μl/well: goat anti-mouse (sCD4 plate) or goat anti-rabbit (GRFT plate) at a 1:1000 dilution; incubation for 1 hr. The plates were then washed and visualized as previously outlined.",
  "data": [
    {"molecule": "B1", "values": [
      {"measurement": "CNID-1 binding to gp120 after CV-N pre-treatment", "setting": "CV-N 100 ng/well", "result": "did not affect CNID-1 binding"},
      {"measurement": "CNID-1 binding to gp120 after GRFT pretreatment", "setting": "ELISA", "result": "reduced CNID-1 binding to gp120"},
      {"measurement": "CNID-1 binding to gp120 after pretreatment with sCD4", "setting": "ELISA", "result": "did not block CNID-1 binding to gp120"},
      {"measurement": "sCD4 binding to gp120 after pre-treatment with CNID-1", "setting": "ELISA", "result": "did not block subsequent binding of sCD4 to gp120"},
      {"measurement": "CNID-1 binding to gp120 after SVN pre-treatment", "setting": "SVN 100 ng/well", "result": "did not affect CNID-1 binding"},
      {"measurement": "GRFT binding to gp120 after pretreatment with CNID-1", "setting": "rCNID-1 500 ng/well", "result": "did not inhibit GRFT binding to gp120"},
      {"measurement": "CNID-1 binding to gp120 in presence of α-acid glycoprotein", "setting": "α-acid glycoprotein as carrier of sialic acid", "result": "not inhibited"}
    ]}
  ]
}
